According to the RNAGym collection of RNA variant scans (doi:10.1021/acssynbio.7b00057):

B1: Pistol ribozyme (parent)
chain: GGGUCGUUGUUCCAUAAUCGCGUGGAUAUGGCACGCAAGUUUCUACCGGGCACCGUAAAUGUCCGACUGGAGCCGUUCGGGCGGCUAUAAACAGACCUCAGGCCCGAAGCGUGGCGGCACCUGCCGCCGGUGGUAAAAAAGAUCGGAAGAGCACACGUCU

Variants of: B1
Assay: aptazyme ON/OFF ratio, guanine; higher = stronger switching; co-transcriptional cleavage with and without guanine

Row | Variant | aptazyme ON/OFF ratio
1 | U7C G9U U10A | 1.32
2 | U7C G9C U10A C12A | 1.04
3 | U7C G9C U10A C12G | 1.09
4 | U7C G9C U10A C12U | 1.06
5 | U7C G9C C12U C13A | 1.01
6 | U7C G9C C12U C13G | 1.04
7 | U7C G9C C12U C13U | 1.02
8 | U7C G9C U10C U11A C12G C13G | 1.41
9 | U7C G9C U10C U11A C12G C13A | 1.31
10 | U7C G9C U10C U11A C12G C13U | 1.14
11 | U7C G9C U10A U11G C12A | 1.11
12 | U7C G9C U10A U11G C12U | 1.05
13 | U7C G9C U10A U11G C12G | 1.29
14 | U7C G9C U10C U11C C12G C13U | 1.05
15 | U7C G9C U10C U11C C12G C13A | 1.03
16 | U7C G9C U10C U11C C12G C13G | 1.07
17 | U7C G9U C13A | 1.04
18 | U7C G9U C13G | 1.04
19 | U7C G9U C13U | 1.06
20 | U7C G9C C12G C13A | 1.04
21 | U7C G9C C12G C13U | 1.05
22 | U7C G9C C12G C13G | 1.05
23 | U7C G9U C12U C13A | 1.12
24 | U7C G9U C12U C13G | 1.1

Row | Variant | aptazyme ON/OFF ratio
25 | U7C G9U C12U C13U | 1.12
26 | U7C G9U U10A U11C C13G | 1.03
27 | U7C G9U U10A U11C C13A | 1.11
28 | U7C G9U U10A U11C C13U | 1.07
29 | U7C G9U U10A C12A C13A | 1.37
30 | U7C G9U U10A C12A C13G | 1.14
31 | U7C G9U U10A C12A C13U | 1.36
32 | U7C G9C U11G C13G | 1.03
33 | U7C G9C U11G C13U | 1.06
34 | U7C G9C U11G C13A | 1.03
35 | U7C G9U C12G C13G | 1.1
36 | U7C G9U C12G C13A | 1.11
37 | U7C G9U C12G C13U | 1.15
38 | U7C G9C U11A C12G C13A | 1.12
39 | U7C G9C U11A C12G C13U | 1.14
40 | U7C G9C U11A C12G C13G | 1.07
41 | U7C G9C U10A U11C C12A C13U | 1.05
42 | U7C G9C U10A U11C C12A C13A | 1.08
43 | U7C G9C U10A U11C C12A C13G | 1.07
44 | U7C G9C U10A U11G C12A C13G | 1.03
45 | U7C G9C U10A U11G C12A C13U | 1.06
46 | U7C G9C U10A U11G C12A C13A | 1.15
47 | U7C G9C U10G U11A C12G C13G | 1.11
48 | U7C G9C U10G U11A C12G C13A | 1.13

Row | Variant | aptazyme ON/OFF ratio
49 | U7C G9C U10G U11A C12G C13U | 1.09
50 | U7C G9C U10A U11A C12U C13U | 1.09
51 | U7C G9C U10A U11A C12U C13A | 1.04
52 | U7C G9C U10A U11A C12U C13G | 1.06
53 | U7C G9U U10A C12G C13U | 1.27
54 | U7C G9U U10A C12G C13A | 1.24
55 | U7C G9U U10A C12G C13G | 1.13
56 | U7C G9C U10G U11G C13U | 1.09
57 | U7C G9C U10G U11G C13G | 1.11
58 | U7C G9C U10G U11G C13A | 1.1
59 | U7C G9C U10G U11G C12A C13U | 1.09
60 | U7C G9C U10G U11G C12A C13G | 1.12
61 | U7C G9C U10G U11G C12A C13A | 1.08
62 | U7C G9U U10A U11G C12G C13G | 1.14
63 | U7C G9U U10A U11G C12G C13U | 1.16
64 | U7C G9U U10A U11G C12G C13A | 1.1
65 | U7C G9U C12A C13A | 1.18
66 | U7C G9U C12A C13G | 1.08
67 | U7C G9U C12A C13U | 1.19
68 | U7C G9C U10A U11C C12U | 1.04
69 | U7C G9C U10A U11C C12G | 1.26
70 | U7C G9C U10A U11C C12A | 1.07
71 | U7C G9C U11C C12G C13U | 1.04
72 | U7C G9C U11C C12G C13G | 1.04

Row | Variant | aptazyme ON/OFF ratio
73 | U7C G9C U11C C12G C13A | 1.04
74 | U7C G9C U10G C12U C13G | 1.03
75 | U7C G9C U10G C12U C13A | 1.11
76 | U7C G9C U10G C12U C13U | 1.17
77 | U7C G9C U10C U11C C13U | 1.01
78 | U7C G9C U10C U11C C13A | 1.02
79 | U7C G9C U10C U11C C13G | 1.04
80 | U7C G9C U11G C12G C13A | 1.08
81 | U7C G9C U11G C12G C13G | 1.09
82 | U7C G9C U11G C12G C13U | 1.07
83 | U7C G9C U10C C12U C13G | 1.07
84 | U7C G9C U10C C12U C13U | 1.07
85 | U7C G9C U10C C12U C13A | 1.04
86 | U7C G9C U10G U11G | 1.11
87 | U7C G9C U10G U11A | 1.09
88 | U7C G9C U10G U11C | 1.05
89 | U7C G9U U10A U11C | 1.06
90 | U7C G9U U10A U11A | 1.42
91 | U7C G9U U10A U11G | 1.31
92 | U7C G9C U10A U11G C13A | 1.09
93 | U7C G9C U10A U11G C13G | 1.07
94 | U7C G9C U10A U11G C13U | 1.09
95 | U7C G9C U10A C12A C13A | 1.09
96 | U7C G9C U10A C12A C13G | 1.09

Row | Variant | aptazyme ON/OFF ratio
97 | U7C G9C U10A C12A C13U | 1.09
98 | U7C G9C C12U | 1.03
99 | U7C G9C C12G | 1.04
100 | U7C G9C C12A | 1.03
101 | U7C G9C U10C U11G C12A C13U | 1.04
102 | U7C G9C U10C U11G C12A C13G | 1.05
103 | U7C G9C U10C U11G C12A C13A | 1.14
104 | U7C G9C U10A U11C | 1.04
105 | U7C G9C U10A U11A | 1.05
106 | U7C G9C U10A U11G | 1.09
107 | U7C G9A U11G C12U C13U | 1.45
108 | U7C G9A U11G C12U C13G | 1.23
109 | U7C G9U U10A U11G C12G | 1.19
110 | U7C G9U U10A U11G C12A | 1.08
111 | U7C G9C U10A U11C C12U C13G | 1.03
112 | U7C G9C U10A U11C C12U C13U | 1.03
113 | U7C G9C U10A U11C C12U C13A | 1.04
114 | U7C G9U U10A U11C C12U C13U | 1.29
115 | U7C G9U U10A U11C C12U C13A | 1.23
116 | U7C G9U U10A U11C C12U C13G | 1.03
117 | U7C G9C U10C U11C C12U C13U | 1.01
118 | U7C G9C U10C U11C C12U C13A | 1.03
119 | U7C G9C U10C U11C C12U C13G | 1.02
120 | U7C G9C U10G U11C C12A | 1.19

Row | Variant | aptazyme ON/OFF ratio
121 | U7C G9C U10G U11C C12G | 1.25
122 | U7C G9C U10G U11C C12U | 1.11
123 | U7C G9C U10G U11C C12U C13A | 1.12
124 | U7C G9C U10G U11C C12U C13U | 1.16
125 | U7C G9C U10G U11C C12U C13G | 1.05
126 | U7C G9C U11A C12U C13G | 1.03
127 | U7C G9C U11A C12U C13U | 1.05
128 | U7C G9C U11A C12U C13A | 1.02
129 | U7C G9C U10G U11G C12G C13A | 1.08
130 | U7C G9C U10G U11G C12G C13G | 1.11
131 | U7C G9C U10G U11G C12G C13U | 1.09
132 | U7C G9C U10A U11C C13A | 1.02
133 | U7C G9C U10A U11C C13G | 1.03
134 | U7C G9C U10A U11C C13U | 1.02
135 | U7C G9C U10C U11A C12G | 0.941
136 | U7C G9C U10C U11A C12U | 1
137 | U7C G9C U10C U11A C12A | 1.09
138 | U7C G9C U10G U11G C12A | 1.11
139 | U7C G9C U10G U11G C12U | 1.07
140 | U7C G9C U10G U11G C12G | 1.12
141 | U7C G9C U10A U11G C12G C13G | 1.09
142 | U7C G9C U10A U11G C12G C13A | 1.1
143 | U7C G9C U10A U11G C12G C13U | 1.13
144 | U7C G9C U11G C12A C13U | 1.07

Row | Variant | aptazyme ON/OFF ratio
145 | U7C G9C U11G C12A C13G | 1.06
146 | U7C G9C U11G C12A C13A | 1.05
147 | U7C G9U U10A U11A C12G C13G | 1.19
148 | U7C G9U U10A U11A C12G C13A | 1.17
149 | U7C G9U U10A U11A C12G C13U | 1.2
150 | U7C G9U U10A U11A C12A C13U | 1.18
151 | U7C G9U U10A U11A C12A C13G | 1.1
152 | U7C G9U U10A U11A C12A C13A | 1.3
153 | U7C G9U U10A C13A | 1.18
154 | U7C G9U U10A C13G | 1.04
155 | U7C G9U U10A C13U | 1.22
156 | U7C G9C U10G U11C C13A | 1.1
157 | U7C G9C U10G U11C C13U | 1.06
158 | U7C G9C U10G U11C C13G | 1.04
159 | U7C G9C U11A C13A | 1.03
160 | U7C G9C U11A C13U | 1.02
161 | U7C G9C U11A C13G | 1.04
162 | U7C G9C U10G C13U | 1.07
163 | U7C G9C U10G C13G | 1.08
164 | U7C G9C U10G C13A | 1.11
165 | U7C G9C U10C U11A | 0.975
166 | U7C G9C U10C U11G | 1.07
167 | U7C G9C U10C U11C | 0.99
